# From KR20200072008A
# Where a chain is given by its changes, count along the chain named.
# B1: D3 (antibody, V domains shown)
# VH: EVQLEESGGGLVQPGGSLKLSCAASGFTFSNYGMSWVRQTPDKRLELVATINSNGGTTYYPDSVKGRFTISRDNAKNTLYLQMSSLKSEDSAMYYCARDRDAMDYWGQGTSVTVSS
# VL: DVLMTQTPLSLPVSLGDQASISCRSSQSIVNSHGNTYLEWYLQKPGQSPKLLIYKVSNRFSGVPDRFSGSGSGTDFTLKISRVEAEDLGVYYCFQGSHVPWTFGGGTKLEIK
# B2: B4 (antibody, V domains shown)
# VH: EVKLVESGGGLVKPGGSLKLSCAASGFTFSNYGMSWVRQTPEKRLEWVATISSGGSYTYYPDSVKGRFTISRDNAKNTLYLQMSSLRSEDTAMYYCARHEGGGNPYFDYWGQGTTLTVSS
# VL: B1 VL with I29L, N31H, H33N, E39H, Y92F, F94S, G96N, S97T, H98L
# B3: C4 (antibody, V domains shown)
# VH: DVKLQESGPGLVKPSQSLSLTCTVTGYSITSDYAWNWIRQFPGNKLEWMGYISYSVGTRYNPSLKSRISITRDTSKNQFFLLLKSVTNEDTATYFCARKGEYGFAYWGQGTLVTVSA
# VL: DIVMTQSPASLAVSLGQRATISCRASKSVSTSGYSYMHWYQQKPGQPPKLLIYLASNLESGVPARFSGSGSGTDFTLNIHPVEEEDAATYYCQHSRELPLTFGAGTKLELK
# B4: C24 (antibody, V domains shown)
# VH: EVKLVESGGGLVQPKGSLKLSCAASGYTFNTYAMNWVRQAPGKGLEWVARIRSKSNNYTTYYADSVKDRFTISRDDSQSMLYLQINNLKTEDTAMYYCVGQILYYYVGSPAWFAYWGQGTLVTVSA
# VL: B3 VL with Y53F, L100W, A104G, L110I
# B5: C16 (antibody, V domains shown)
# VH: EVQLQQSGAELARPGASVQMSCKAFGYTFTNYTMHWVRQRPGQGLEWIGFINPSSDYTNYNQKFKDKATLSADKSSSTAYMQLSSLTSEDSAVYYCARRIFYNGRTYAAMDYWGQGTSVTVSS
# VL: B3 VL with T31S
# B6: C14 (antibody, V domains shown)
# VH: EVKLVESGGGLVQPKGSLKLSCAASGFTFNTNAMNWVRQAPGKGLEWVARIRSKSDNYATYYADSVKDRFTISRDDSPSMLYLQMNNLKTEDTAMYYCVYGRSYGGLGYWGQGTLVTVSA
# VL: B3 VL with M4L, M37V
# B7: C7 (antibody, V domains shown)
# VH: B6 VH with E1Q, K3Q, S7T, D56N, P78Q, M80L, G108S
# VL: B3 VL with T31S
# B8: D2 (antibody, V domains shown)
# VH: DVKLQESGPGLVKPSQSLSLTCSVTGYSITSGYYWNWIRQFPGNKLEWMGYIRYDGSNNYNPSLKNRISITRDTSKNQFFLKLNSVTTEDTASYYCARDRDSSYYFDYWGQGTALTVSS
# VL: DIVMTQSSSYLSVSLGGRVTITCKASDHINNWLAWYQQKPGNAPRLLISDTTSLETGVPSRFSGSGSGKDYTLSITSLQTEDVATYYCQQYWSAPPTFGGGTKLEIK
# What was measured:
# [1] = biological target: GST-SNAP25 197 (UniProt P60880)
# [2] = biological target: GST-SNAP25 FL (UniProt P60880)
# [3] = biological target: GST-SNAP25 197 (UniProt P60880); assay: direct ELISA; A450 on GST-SNAP25 197 divided by A450 on GST-SNAP25 FL
# Sequence of GST-SNAP25 FL (P60880 whole entry): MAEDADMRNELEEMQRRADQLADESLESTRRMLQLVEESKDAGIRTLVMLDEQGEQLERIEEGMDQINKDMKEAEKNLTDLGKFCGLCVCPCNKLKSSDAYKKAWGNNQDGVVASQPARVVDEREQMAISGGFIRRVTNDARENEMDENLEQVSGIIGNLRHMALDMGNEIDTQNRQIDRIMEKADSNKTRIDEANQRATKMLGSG
# Sequence of GST-SNAP25 197 (P60880 1-197 limits assumed): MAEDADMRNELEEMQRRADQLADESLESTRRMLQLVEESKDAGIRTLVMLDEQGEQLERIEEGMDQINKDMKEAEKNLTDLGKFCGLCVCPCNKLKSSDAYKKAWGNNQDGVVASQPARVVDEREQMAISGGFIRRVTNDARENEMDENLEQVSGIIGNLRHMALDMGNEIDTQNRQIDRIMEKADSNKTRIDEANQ
Binder,A450 with SNAP25 197 [1],A450 with SNAP25 FL [2],Ratio 197/206 [3]
B1,1.62,0.125,12.9
B2,1.8,2.16,0.83
B3,0.919,0.001,919
B4,0.973,0.001,973
B5,0.996,0.001,996
B6,0.953,0.001,953
B7,1.2,0.001,1040
B8,0.048,1.45,0.03
